Measured values published in patent US20190177434A1.

B1: IgG-Fc-11 (VHH)
VHH: QVQLQESGGGLVQAGGSLRLSCAVSGRTFSTYAMGWFRQAPGKEREFVGSANWKSGSTYLVDSVKGRFTISGDNAHDTVHLQMTSLKPEDTGVYFCVARSFGTGQWDYWGQGTQVTVSS
B2: IgG-Fc-12 (VHH)
VHH: QVQLQESGGGLVQAGGSLRLSCAVSGRTFSTYAMGWFRQAPGKEREFVGSINFKSGSIYLADSVKGRFTISGDNAQNTAYLQMTSLKPEDTAVYLCVARSFGTGQWDYWGQGTQVTVSS
B3: IgG-Fc-13 (VHH)
VHH: QVQLQESGGGLVQAGGSLRLSCAASGDTFSTYAMGWFRQAPGKEREFVGRIVRGTESTYLIDSVKGRFAISRDNAQNTVYLQMTSLKPEDTAVYFCVARSFGAGQWDYWGQGTQVTVSS
B4: IgG-Fc-14 (VHH)
VHH: QVQLQESGGGLVQTGGSLRLSCSASGGTFETYAMGWFRQAPGKEREFVGSTNWKSERTYVADSVKGRFTISRDNGQYTAYLQMTSLKPEDTAVYFCVARSFGTGQWDYWGQGTQVTVSS
B5: IgG-Fc-15 (VHH)
VHH: QVQLQESGGGLVQAGGSLRLSCAVSGRGFSTYAMGWFRQAPGKEREFVGSANWKSGSIYVADSVKGRFTISNDNAQNTVYLQMSSLKPEDTAVYYCVARSFGTGQWDYWGQGTQVTVSS

These binders were tested against Human IgG, Fc fragment (human) (assay: method not given).
B1 was tested, and the Ka was > 4e+09 M⁻¹. B2 was tested, and the Ka was > 4e+09 M⁻¹. With B3 the Ka was > 4e+09 M⁻¹. In the case of B4, the Ka is reported as > 4e+09 M⁻¹. With B5 the Ka was > 4e+09 M⁻¹.
